Columns and labels:
mouse plasmin = target: T1, mouse plasmin (mouse, UniProt P20918 98-812); assay: protease inhibition constant Ki, mouse enzyme
T1 construct: also called Plasmin (mice)

mouse kallikrein = target: T2, mouse kallikrein (mouse, UniProt P26262 20-638, limits assumed); assay: protease inhibition constant Ki, mouse enzyme
T2 construct: also called Kallikrein (mice)

[1] = target: T3, mouse coagulation factor IXa (mouse, UniProt P16294 47-192; P16294 237-471); assay: protease inhibition constant Ki, mouse enzyme
T3 construct: also called IXa (mice)
T3 sequence (P16294 47-192 limits assumed, chain 1 of 2): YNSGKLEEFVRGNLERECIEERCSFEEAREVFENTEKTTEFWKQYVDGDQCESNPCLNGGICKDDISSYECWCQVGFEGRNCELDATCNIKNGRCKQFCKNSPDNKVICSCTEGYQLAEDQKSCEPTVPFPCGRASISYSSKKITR
T3 sequence (P16294 237-471 limits assumed, chain 2 of 2): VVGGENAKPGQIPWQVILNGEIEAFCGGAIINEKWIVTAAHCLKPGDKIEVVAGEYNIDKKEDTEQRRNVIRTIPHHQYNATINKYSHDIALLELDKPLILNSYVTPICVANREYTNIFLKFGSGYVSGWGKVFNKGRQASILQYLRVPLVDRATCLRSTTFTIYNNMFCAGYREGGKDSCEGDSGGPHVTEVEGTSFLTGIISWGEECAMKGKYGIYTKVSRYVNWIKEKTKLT

mouse thrombin = target: T4, mouse thrombin (mouse, UniProt P19221 325-618); assay: protease inhibition constant Ki, mouse enzyme
T4 construct: also called Thrombin (mice)

[2] = target: T5, mouse coagulation factor Xa (mouse, UniProt O88947 41-180; O88947 232-481, limits assumed); assay: protease inhibition constant Ki, mouse enzyme
T5 construct: also called Xa (mice)
T5 sequence (O88947 41-180 limits assumed, chain 1 of 2): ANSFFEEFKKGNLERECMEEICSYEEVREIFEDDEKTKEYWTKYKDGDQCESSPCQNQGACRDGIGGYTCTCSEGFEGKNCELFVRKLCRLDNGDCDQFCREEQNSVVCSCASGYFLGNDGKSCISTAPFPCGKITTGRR
T5 sequence (O88947 232-481 limits assumed, chain 2 of 2): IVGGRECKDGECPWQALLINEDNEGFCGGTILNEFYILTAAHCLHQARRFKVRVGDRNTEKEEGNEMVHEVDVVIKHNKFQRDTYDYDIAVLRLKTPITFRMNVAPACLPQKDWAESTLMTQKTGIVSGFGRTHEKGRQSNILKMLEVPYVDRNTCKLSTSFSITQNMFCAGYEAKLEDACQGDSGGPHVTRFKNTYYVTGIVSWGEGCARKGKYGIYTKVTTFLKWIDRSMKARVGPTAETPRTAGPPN

[3] = target: T6, human coagulation factor VIIa (human, UniProt P08709 61-466); assay: protease inhibition constant Ki, human enzyme
T6 sequence (looked up): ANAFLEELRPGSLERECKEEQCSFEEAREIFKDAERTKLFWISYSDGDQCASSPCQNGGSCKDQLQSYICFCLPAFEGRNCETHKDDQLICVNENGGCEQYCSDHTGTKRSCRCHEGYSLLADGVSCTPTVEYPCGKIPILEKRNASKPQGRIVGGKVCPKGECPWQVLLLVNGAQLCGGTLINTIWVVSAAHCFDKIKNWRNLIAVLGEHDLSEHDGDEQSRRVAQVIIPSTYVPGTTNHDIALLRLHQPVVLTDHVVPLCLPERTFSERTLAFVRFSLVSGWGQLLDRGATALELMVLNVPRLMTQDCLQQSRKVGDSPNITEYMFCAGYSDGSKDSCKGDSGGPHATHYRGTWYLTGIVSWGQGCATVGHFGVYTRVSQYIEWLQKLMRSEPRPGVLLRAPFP

human plasmin = human plasmin (human, UniProt P00747 97-810); assay: protease inhibition constant Ki, human enzyme
Chain of human plasmin (P00747 97-810 limits assumed): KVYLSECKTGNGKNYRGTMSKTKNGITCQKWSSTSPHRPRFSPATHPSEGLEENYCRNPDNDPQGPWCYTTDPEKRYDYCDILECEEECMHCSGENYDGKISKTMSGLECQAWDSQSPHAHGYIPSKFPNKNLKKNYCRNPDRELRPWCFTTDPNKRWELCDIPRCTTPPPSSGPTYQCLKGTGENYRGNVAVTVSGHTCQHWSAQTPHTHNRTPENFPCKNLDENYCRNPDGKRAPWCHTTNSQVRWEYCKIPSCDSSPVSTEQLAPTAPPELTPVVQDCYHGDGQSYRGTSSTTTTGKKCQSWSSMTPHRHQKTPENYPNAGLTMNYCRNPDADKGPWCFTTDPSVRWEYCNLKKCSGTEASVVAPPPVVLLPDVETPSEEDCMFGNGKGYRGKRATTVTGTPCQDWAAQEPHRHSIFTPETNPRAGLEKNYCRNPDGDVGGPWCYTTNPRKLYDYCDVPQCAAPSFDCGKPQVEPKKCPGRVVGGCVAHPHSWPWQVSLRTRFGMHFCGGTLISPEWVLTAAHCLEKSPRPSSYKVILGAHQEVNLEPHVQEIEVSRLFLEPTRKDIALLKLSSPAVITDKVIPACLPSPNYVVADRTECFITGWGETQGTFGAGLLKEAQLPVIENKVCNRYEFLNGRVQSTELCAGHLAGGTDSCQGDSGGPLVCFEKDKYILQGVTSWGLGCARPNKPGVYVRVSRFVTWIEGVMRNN

human thrombin = human thrombin (human, UniProt P00734 328-622); assay: protease inhibition constant Ki, human enzyme
[4] = target: human coagulation factor Xa (human, UniProt P00742 41-179; P00742 235-488, limits assumed); assay: protease inhibition constant Ki, human enzyme
Chain of human coagulation factor Xa (P00742 41-179 limits assumed, chain 1 of 2): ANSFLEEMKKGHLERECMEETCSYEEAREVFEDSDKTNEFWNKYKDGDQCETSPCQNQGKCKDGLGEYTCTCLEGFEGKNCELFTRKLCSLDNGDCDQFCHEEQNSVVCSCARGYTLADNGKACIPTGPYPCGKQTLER
Chain of human coagulation factor Xa (P00742 235-488 limits assumed, chain 2 of 2): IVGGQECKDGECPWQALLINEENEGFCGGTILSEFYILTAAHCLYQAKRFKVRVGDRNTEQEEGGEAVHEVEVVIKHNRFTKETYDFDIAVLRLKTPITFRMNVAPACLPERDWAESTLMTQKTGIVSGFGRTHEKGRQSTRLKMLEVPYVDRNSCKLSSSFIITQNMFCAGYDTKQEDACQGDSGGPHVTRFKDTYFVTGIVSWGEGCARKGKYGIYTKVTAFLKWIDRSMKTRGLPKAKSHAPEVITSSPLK

human kallikrein = human kallikrein (human, UniProt P03952 20-638, limits assumed); assay: protease inhibition constant Ki, human enzyme
Chain of human kallikrein (P03952 20-638 limits assumed): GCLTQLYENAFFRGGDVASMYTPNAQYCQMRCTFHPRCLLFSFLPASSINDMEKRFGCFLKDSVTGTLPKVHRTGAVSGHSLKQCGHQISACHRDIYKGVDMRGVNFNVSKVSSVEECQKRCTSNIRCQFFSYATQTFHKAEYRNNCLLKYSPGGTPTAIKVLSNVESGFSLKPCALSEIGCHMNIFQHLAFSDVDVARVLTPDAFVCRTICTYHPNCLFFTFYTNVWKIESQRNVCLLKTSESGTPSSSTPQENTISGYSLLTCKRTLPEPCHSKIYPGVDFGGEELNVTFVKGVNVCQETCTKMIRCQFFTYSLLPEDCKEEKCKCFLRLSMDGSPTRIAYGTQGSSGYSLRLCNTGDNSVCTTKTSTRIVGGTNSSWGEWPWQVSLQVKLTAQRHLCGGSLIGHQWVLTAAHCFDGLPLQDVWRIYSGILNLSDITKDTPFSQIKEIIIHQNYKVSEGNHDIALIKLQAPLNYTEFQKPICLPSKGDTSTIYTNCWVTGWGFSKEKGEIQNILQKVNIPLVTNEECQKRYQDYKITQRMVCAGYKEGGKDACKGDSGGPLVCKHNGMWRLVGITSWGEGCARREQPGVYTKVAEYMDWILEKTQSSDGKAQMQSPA

T2 sequence (P26262 20-638 limits assumed): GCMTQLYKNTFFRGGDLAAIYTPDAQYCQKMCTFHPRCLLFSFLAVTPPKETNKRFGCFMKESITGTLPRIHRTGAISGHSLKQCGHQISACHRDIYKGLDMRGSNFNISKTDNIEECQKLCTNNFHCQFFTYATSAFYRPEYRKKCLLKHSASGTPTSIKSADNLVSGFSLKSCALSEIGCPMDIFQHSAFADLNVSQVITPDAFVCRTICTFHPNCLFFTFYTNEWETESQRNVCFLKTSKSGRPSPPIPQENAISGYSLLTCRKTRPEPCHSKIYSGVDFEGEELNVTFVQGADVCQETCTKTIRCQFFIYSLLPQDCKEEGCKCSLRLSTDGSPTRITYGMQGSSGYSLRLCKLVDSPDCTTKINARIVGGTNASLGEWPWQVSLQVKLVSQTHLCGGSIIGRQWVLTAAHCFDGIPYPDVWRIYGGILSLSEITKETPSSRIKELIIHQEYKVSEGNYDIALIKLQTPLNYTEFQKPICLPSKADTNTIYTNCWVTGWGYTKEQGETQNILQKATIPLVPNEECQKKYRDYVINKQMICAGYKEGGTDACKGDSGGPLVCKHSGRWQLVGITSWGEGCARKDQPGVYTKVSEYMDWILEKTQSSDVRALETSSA
T1 sequence (P20918 98-812 limits assumed): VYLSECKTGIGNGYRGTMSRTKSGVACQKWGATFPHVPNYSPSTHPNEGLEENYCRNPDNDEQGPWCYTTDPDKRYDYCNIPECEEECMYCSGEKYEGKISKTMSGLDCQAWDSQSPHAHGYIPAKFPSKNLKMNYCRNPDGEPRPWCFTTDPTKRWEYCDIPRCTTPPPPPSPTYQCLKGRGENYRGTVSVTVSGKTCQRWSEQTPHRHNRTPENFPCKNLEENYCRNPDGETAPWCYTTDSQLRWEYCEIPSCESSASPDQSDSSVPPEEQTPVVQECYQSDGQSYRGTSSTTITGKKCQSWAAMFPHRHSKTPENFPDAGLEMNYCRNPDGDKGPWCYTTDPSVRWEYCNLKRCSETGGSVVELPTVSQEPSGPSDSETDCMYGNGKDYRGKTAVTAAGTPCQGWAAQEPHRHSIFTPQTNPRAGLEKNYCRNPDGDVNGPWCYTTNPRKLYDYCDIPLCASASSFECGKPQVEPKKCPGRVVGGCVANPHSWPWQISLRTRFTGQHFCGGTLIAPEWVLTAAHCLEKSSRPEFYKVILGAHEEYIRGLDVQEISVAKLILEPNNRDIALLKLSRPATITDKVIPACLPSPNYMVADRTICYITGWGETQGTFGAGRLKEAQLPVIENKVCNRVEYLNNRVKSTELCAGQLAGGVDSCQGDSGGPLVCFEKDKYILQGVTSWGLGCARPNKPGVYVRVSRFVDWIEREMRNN

B1: Ecotin variant NB141 (M84R/S82H) (other)
chain: AESVQPLEKIAPYPQAEKGMKRQVIQLTPQEDESTLKVELLIGQTLEVDCNLHRLGGKLENKTLEGWGYDYYVFDKVSSPVHTRMACPDGKKEKKFVTAYLGDAGMLRYNSKLPIVVYTPDNVDVKYRVWKAEEKIDNAVVR
Question: B1 was tested. Which Ki (mouse plasmin) did it give?
Answer: The Ki was 1200 pM.

Question: And the Ki (mouse kallikrein)?
Answer: Its Ki is 200 pM.

Question: What about the Ki [1] of the same binder?
Answer: The Ki was 600 pM.

Question: And the Ki (mouse thrombin)?
Answer: Its Ki is 11600 pM.

Question: And the Ki [2]?
Answer: The Ki was 200 pM.

Question: And the Ki [3]?
Answer: Its Ki is 200 pM.

Question: What about the Ki (human plasmin) of the same binder?
Answer: Its Ki is 18700 pM.

Question: And the Ki (human thrombin)?
Answer: Its Ki is 1600 pM.

Question: What about the Ki [4] of the same binder?
Answer: The Ki was 200 pM.

Question: And the Ki (human kallikrein)?
Answer: The Ki was 70 pM.

Reference: patent US20170260251A1 (ANSUN BIOPHARMA, published 2017)
